We go through two molecules from patent US9644034B2, “Anti-RSPO2 antibodies and uses thereof” (OncoMed Pharmaceuticals, Inc., priority 2011, dated 2017).

Test [1] deals with RSPO1-induced β-catenin signaling. Nature of the test: TOPflash luciferase assay in HEK-293 cells, Wnt3a plus human RSPO1. The conditions noted are these: Wnt3a 5 ng/ml, RSPO1 10 ng/ml; antibodies 10 to 0.625 μg/ml. It counts as cell-based. On the procedure: HEK-293 cells were transfected with a 6×TCF-luciferase reporter vector (TOPflash, Millipore, Billerica, Mass.). After 24-48 hrs, the transfected HEK-293 cells were incubated with a combination of Wnt3a (5 ng/ml) and human RSPO1 (10 ng/ml, R&D BioSystems) in the presence of anti-RSPO1 antibodies 89M2, 89M4, 89M5, 89M7, 89M19, and 89M25, or 2 irrelevant control antibodies 254M14 and 254M26 (2-fold dilutions at 10 μg/ml to 0.625 μg/ml). The cells were incubated for 16 hours and luciferase activity was measured using Steady-Glo® Luciferase Assay System according to the manufacturer's instructions (Promega, Madison, Wis.).

Test [2] concerns the target T1, human RSPO1 (Homo sapiens, UniProt Q2MKA7).
T1 construct: followed by the two furin-like domains of RSPO1 (aa 34-135); expressed in transfected cells; host or cells: HEK-293
As to the kind of experiment: FACS screening of hybridoma supernatants on HEK-293 cells expressing FLAG-RSPO1furin-CD4TM-GFP. It counts as binding. An excerpt: Antibodies were generated against recombinant human RSPO1 protein amino acids 31-263 (R&D Systems, Minneapolis, Minn.). Mice (n=3) were immunized with RSPO1 protein using standard techniques. Sera from individual mice were screened against RSPO1 approximately 70 days after initial immunization using FACS analysis. The animal with the highest antibody titer was selected for final antigen boost after which spleen cells were isolated for hybridoma production. SP2/0 cells were used as fusion partners for the mouse spleen cells. Hybridoma cells were plated at 1 cell per well in 96 well plates, and the supernatants were screened against human RSPO1 by FACS analysis.
For FACS screening of anti-RSPO1 antibodies a chimeric fusion protein enabling cell surface expression of the N-terminal furin-like domains of human RSPO1 was constructed.
HEK-293 cells were transfected with FLAG-RSPOlfurin-CD4TM-GFP. After 48 hours, transfected cells were suspended in ice cold PBS containing 2% FBS and heparin and incubated on ice in the presence of 50 μl of hybridoma supernatants for 30 minutes. A second incubation with 100 μl PE-conjugated […] secondary antibody was performed to detect cells bound by antibody. Cells were incubated with an anti-FLAG antibody (Sigma-Aldrich, St. Louis, Mo.) as a positive control and an anti-PE antibody as a negative control. The cells were analyzed on a FACSCalibur instrument (BD Biosciences, San Jose, Calif.) and the data was processed using FlowJo software.

For test [3], the system named is PN31 pancreatic tumor cells. Nature of the test: PN31 pancreatic tumor xenograft growth in NOD/SCID mice. It counts as in vivo. To be noted: antibodies 15 mg/kg once a week, intraperitoneal. The protocol:
Dissociated PN31 pancreatic tumor cells (1×10^5cells) were injected subcutaneously into the flanks of 6-8 week old NOD/SCID mice. Tumors were allowed to grow for 61 days until they reached an average volume of 120 mm^3. The mice were randomized (n=10 per group) and treated with anti-RSPO1 antibody 89M5, anti-RSPO2 antibody 130M23, gemcitabine, a combination of 89M5 and gemcitabine, a combination of 130M23 and gemcitabine, or control antibody 1B7.11. Antibodies were dosed at 15 mg/kg once a week, and gemcitabine was dosed at […] once a week. Administration of the antibodies and gemcitabine was performed via injection into the intraperitoneal cavity. Tumor growth was monitored and tumor volumes were measured with electronic calipers at specific time points. Data are expressed as mean±S.E.M.

The target in test [4] is T1, human RSPO1. As to the kind of experiment: FACS binding of 89M5 and humanized 89M5 to HEK293 cells expressing FLAG-RSPO1furin-CD4TM-GFP. The conditions noted are these: five-fold serial dilutions. The protocol:
HEK293 cells were transiently transfected with an expression vector encoding FLAG-RSPO1furin-CD4TM-GFP. As described in Example 5, FLAG-RSPO1furin-CD4TM-GFP is a chimeric fusion protein enabling cell surface expression of the N-terminal furin-like domains of human RSPO1. FLAG-RSPO1 furin-CD4TM-GFP transfected cells were incubated in the presence of anti-RSPO1 antibody 89M5 or humanized anti-RSPO1 antibody h89M5-H2L2. Five-fold serial dilutions of each antibody were examined for their ability to bind to the RSPO1 expressing cells. The cells were stained with Phycoerythrin conjugated anti-IgG to reveal bound antibody. The cells were analyzed on a FACSCalibur instrument (BD Biosciences, San Jose, Calif.) and the data was processed using FlowJo software.
(Flow cytometry measures light scatter and fluorescence of single cells or particles in a stream.)

A further test deals with T2, binding of RSPO1 to LGR5 (Homo sapiens, UniProt Q2MKA7).
T2 construct: full-length human RSPO1, RSPO2, RSPO3 and RSPO4 were ligated in-frame to a human Fc region; made in house; host or cells: RSPO1-Fc: insect cells (baculovirus); LGR5 construct: transiently transfected HEK-293
As to the kind of experiment: FACS: blocking of soluble RSPO1-Fc binding to LGR5 on HEK-293 cells. To be noted: RSPO1-Fc 10 μg/ml, antibodies 10 μg/ml. The protocol:
HEK-293 cells were transiently transfected with the FLAG-LGR5-CD4TM-GFP construct (previously described in Example 2). After 48 hours, transfected cells were suspended in ice cold PBS containing 2% FBS and heparin and incubated on ice in the presence of RSPO1-Fc protein (10 μg/ml) and antibodies 89M2, 89M4, 89M5, 89M7, 89M19 or 89M25 (10 μg/ml). A second incubation with 100 μl PE-conjugated anti-human Fc secondary antibody was performed to detect cells bound by the RSPO1-Fc fusion protein. The cells were analyzed on a FACSCalibur instrument (BD Biosciences, San Jose, Calif.) and the data was processed using FlowJo software.

The test system of another test is OV19 ovarian tumor cells. Nature of the test: OV19 ovarian tumor xenograft growth in NOD/SCID mice. It counts as in vivo. The conditions noted are these: day 35, vs control antibody; antibodies 15 mg/kg once a week, intraperitoneal. The protocol: Dissociated OV19 ovarian tumor cells (1×10^5cells) were injected in the mammary fat pads of 6-8 week old NOD/SCID mice. Tumors were allowed to grow for 45 days until they reached an average volume of 134 mm^3. The mice were randomized (n=10 per group) and treated with anti-RSPO1 antibody 89M5, 89M25, taxol, a combination of 89M5 and taxol, a combination of 89M25 and taxol, or control antibody 1B7.11. Antibodies were dosed at 15 mg/kg once a week, and taxol was dosed at […] once a week. Administration of the antibodies and taxol was performed via injection into the intraperitoneal cavity. Tumor growth was monitored and tumor volumes were measured with electronic calipers at the indicated time points. Data are expressed as mean±S.E.M.

For the next test, the target named is T3, human RSPO2 (Homo sapiens, UniProt Q6UXX9).
T3 construct: followed by the furin-like domains of RSPO2 (aa 31-146); expressed in transfected cells; host or cells: HEK-293
As to the kind of experiment: FACS binding of 130M23 and humanized 130M23 to HEK293 cells expressing FLAG-RSPO2furin-CD4TM-GFP. The conditions noted are these: five-fold serial dilutions. The protocol:
HEK293 cells were transiently transfected with an expression vector encoding FLAG-RSPO2furin-CD4TM-GFP. As described in Example 11, FLAG-RSPO2furin-CD4TM-GFP is a chimeric fusion protein enabling cell surface expression of the N-terminal furin-like domains of human RSPO2. FLAG-RSPO2furin-CD4TM-GFP transfected cells were incubated in the presence of anti-RSPO2 antibody 130M23 or humanized anti-RSPO2 antibody […]. Five-fold serial dilutions of each antibody were examined for their ability to bind to the RSPO2 expressing cells. The cells were stained with Phycoerythrin conjugated anti-IgG to reveal bound antibody. The cells were analyzed on a FACSCalibur instrument (BD Biosciences, San Jose, Calif.) and the data was processed using FlowJo software.

T1 sequence (Q2MKA7 34-135): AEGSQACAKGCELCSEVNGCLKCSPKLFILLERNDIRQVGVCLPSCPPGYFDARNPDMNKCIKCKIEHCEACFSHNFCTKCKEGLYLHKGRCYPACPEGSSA
T2 sequence (Q2MKA7 21-263): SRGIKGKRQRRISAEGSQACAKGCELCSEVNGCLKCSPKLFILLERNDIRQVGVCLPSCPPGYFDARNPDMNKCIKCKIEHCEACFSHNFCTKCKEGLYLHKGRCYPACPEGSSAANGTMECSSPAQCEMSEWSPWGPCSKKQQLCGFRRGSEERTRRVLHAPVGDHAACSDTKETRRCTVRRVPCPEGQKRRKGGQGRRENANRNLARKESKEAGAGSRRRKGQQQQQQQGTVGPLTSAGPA
T3 sequence (Q6UXX9 31-146): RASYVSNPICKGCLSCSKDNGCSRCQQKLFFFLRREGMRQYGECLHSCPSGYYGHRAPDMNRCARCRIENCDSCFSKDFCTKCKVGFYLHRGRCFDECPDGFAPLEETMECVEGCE

B1: 89M5: anti-RSPO1 monoclonal antibody, hybridoma ATCC PTA-11970; variable regions SEQ ID NO:10 and SEQ ID NO:11 (antibody, V domains shown)
VH: EVQLQQSGPELVKPGASVKISCKTSGYTFTGYTMHWVRQSHGKTLEWIGGINPNNGGTTYNQNFKGKATLTVEKSSTTAYLELRSLTSEDSALYYCARKEFSDGYYFFAYWGQGTLVTVSA
VL: DIVMTQSHKFMSTSVGDRVNITCKASQDVIFAVAWYQQKPGQSPKLLIYWASTRHTGVPDRFTGSVSGTDYTLTISSVQAEDLALYYCQQHYSTPWTFGGGTKLEIK
modifications: 89M5 Heavy chain variable region; 89M5 Light chain variable region
For the molecule B1, the “blocking of RSPO1-induced β-catenin signaling” value in test [1] is reported as “blocked”. Further, the “binding to RSPO1 (FACS)” value in the test with human RSPO1 [2] is “bound”. Further, in test [3], the “effect on tumor growth as single agents” value is on record as “only a minimal effect”. In the test with human RSPO1 [4], the “binding to human RSPO1 (FACS)” value is listed as “bind”. In addition, the “blocking of binding of RSPO1 to LGR5” value with binding of RSPO1 to LGR5 is “blocked”. In addition, the “reduction in tumor growth” value in the test with OV19 ovarian tumor cells was 40%.

B2: h130M23-H1L2: humanized anti-RSPO2 antibody; heavy chain SEQ ID NO:70, light chain SEQ ID NO:71 (antibody)
heavy: EVQLVESGGGLVKPGGSLRLSCAASGFTFSSYAMSWVRQAPGKGLEWVSSISSGGSTYYPDSVKGRFTISRDNAKNSLYLQMNSLRAEDTAVYYCARGGDPGVYNGDYEDAMDYWGQGTTVTVSSASTKGPSVFPLAPCSRSTSESTAALGCLVKDYFPEPVTVSWNSGALTSGVHTFPAVLQSSGLYSLSSVVTVPSSNFGTQTYTCNVDHKPSNTKVDKTVERKCCVECPPCPAPPVAGPSVFLFPPKPKDTLMISRTPEVTCVVVDVSHEDPEVQFNWYVDGVEVHNAKTKPREEQFNSTFRVVSVLTVVHQDWLNGKEYKCKVSNKGLPAPIEKTISKTKGQPREPQVYTLPPSREEMTKNQVSLTCLVKGFYPSDIAVEWESNGQPENNYKTTPPMLDSDGSFFLYSKLTVDKSRWQQGNVFSCSVMHEALHNHYTQKSLSLSPGK
light: DIQMTQSPSSLSASVGDRVTITCKASQDVSSAVAWYQQKPGKAPKLLIYWASTRHTGVPSRFSGSGSGTDFTLTISSVQAEDFATYYCQQHYSTPWTFGQGTKVEIKRTVAAPSVFIFPPSDEQLKSGTASVVCLLNNFYPREAKVQWKVDNALQSGNSQESVTEQDSKDSTYSLSNTLTLSKADYEKHKVYACEVTHQGLSSPVTKSFNRGEC
modifications: h130M23-H1L2 Heavy chain amino acid sequence; h130M23-H1L2 Light chain amino acid sequence
On to B2, for which the “binding to human RSPO2 (FACS)” value in the test with human RSPO2 was “bind”.
